Literature values, collected in paper PMC10299984 (Diabetes Therapy, 2023).

Settings: 36 healthy participants

Substance: insulin glargine [iGlar]
- INS-tmax: 12 h
